Data reported in US20030040042A1, “Recombinant fibroblast growth factors” (published 2003).

T1: FGF receptor on bovine adrenal cortex capillary endothelial (ACE) cells (bovine, UniProt P12820)
T1 sequence: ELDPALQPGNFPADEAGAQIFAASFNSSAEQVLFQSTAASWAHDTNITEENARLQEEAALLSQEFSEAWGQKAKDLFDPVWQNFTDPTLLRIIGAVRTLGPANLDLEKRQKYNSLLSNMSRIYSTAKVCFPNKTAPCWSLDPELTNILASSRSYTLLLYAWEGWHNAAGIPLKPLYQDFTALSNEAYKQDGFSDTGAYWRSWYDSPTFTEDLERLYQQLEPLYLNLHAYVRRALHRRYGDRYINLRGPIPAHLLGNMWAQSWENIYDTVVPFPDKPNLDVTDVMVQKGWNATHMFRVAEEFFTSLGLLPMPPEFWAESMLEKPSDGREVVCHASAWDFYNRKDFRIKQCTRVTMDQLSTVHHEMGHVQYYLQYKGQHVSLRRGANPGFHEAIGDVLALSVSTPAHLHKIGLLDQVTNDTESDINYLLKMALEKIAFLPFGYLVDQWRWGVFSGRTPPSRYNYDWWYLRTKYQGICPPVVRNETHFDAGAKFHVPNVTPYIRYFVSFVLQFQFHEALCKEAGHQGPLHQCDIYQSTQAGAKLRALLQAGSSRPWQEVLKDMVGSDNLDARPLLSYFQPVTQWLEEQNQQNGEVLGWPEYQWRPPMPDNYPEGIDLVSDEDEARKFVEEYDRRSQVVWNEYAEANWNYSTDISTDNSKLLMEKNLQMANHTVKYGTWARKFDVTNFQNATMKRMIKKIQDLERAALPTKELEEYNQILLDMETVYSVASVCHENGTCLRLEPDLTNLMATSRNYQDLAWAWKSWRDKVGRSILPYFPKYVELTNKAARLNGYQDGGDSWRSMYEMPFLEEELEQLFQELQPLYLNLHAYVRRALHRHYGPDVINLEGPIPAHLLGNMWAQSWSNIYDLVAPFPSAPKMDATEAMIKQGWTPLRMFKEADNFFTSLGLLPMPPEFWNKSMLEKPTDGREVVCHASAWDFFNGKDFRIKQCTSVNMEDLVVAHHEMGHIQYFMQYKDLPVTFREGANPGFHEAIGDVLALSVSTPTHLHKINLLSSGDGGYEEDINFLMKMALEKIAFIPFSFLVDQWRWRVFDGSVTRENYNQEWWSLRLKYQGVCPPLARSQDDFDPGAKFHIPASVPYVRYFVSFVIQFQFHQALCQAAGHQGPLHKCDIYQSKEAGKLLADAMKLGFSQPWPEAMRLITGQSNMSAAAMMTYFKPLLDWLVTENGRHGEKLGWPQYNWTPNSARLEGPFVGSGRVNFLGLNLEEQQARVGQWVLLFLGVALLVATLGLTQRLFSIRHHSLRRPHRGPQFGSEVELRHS


Experiments:
[1] = molecular target: FGF receptor on Balb/c 3T3 cells
[2] = molecular target: FGF receptor on Balb/c 3T3 cells; remark: listed apart in the source
[3] = molecular target: FGF receptor on Balb/c 3T3 cells; experiment: competition with [125I]-bFGF on Balb/c 3T3 cells
[4] = molecular target: FGF receptor on bovine adrenal cortex capillary endothelial (ACE) cells (bovine) (UniProt P12820)
[5] = molecular target: FGF receptor on Balb/c 3T3 cells; experiment: competition with [125I]-bFGF on Balb/c 3T3 cells, no heparin
[6] = molecular target: FGF receptor on Balb/c 3T3 cells; experiment: competition with [125I]-bFGF on Balb/c 3T3 cells, 1 ug/ml heparin
[7] = molecular target: T1, FGF receptor on bovine adrenal cortex …; experiment: cell-based or functional assay

3T3 Mito., 1 ug/ml heparin (ED50 wild type / ED50 analog x 100%) (% of wild type) [1]	3T3 Mito., no heparin (ED50 wild type / ED50 analog x 100%) (% of wild type) [1]	inhibition of the activity of 1 ng/ml wild type bFGF in the 3T3 mitogenic assay, no heparin [2]	EC50 [3]	3T3 Mito. (thymidine uptake), EC50 (ED50) [1]	ACE Mito., 1 ug/ml heparin (ED50 wild type / ED50 analog x 100%) (% of wild type) [4]	ACE Mito., no heparin (ED50 wild type / ED50 analog x 100%) (% of wild type) [4]	ACE cell proliferation, EC50 (ED50) [4]	FGF-Rc Comp. (ED50 analog / ED50 wild type FGF) [5]	FGF-Rc Comp. (ED50 analog / ED50 wild type FGF) [6]	3T3 mitogenic assay, ED50 in the absence of bFGF(25-155) [2]	3T3 mitogenic assay, ED50 in the presence of 10 ng/ml bFGF(25-155) [2]	3T3 mitogenic assay, ED50 in the presence of 100 ng/ml bFGF(25-155) [2]	ACE Mito., 1 ug/ml heparin (ED50 wild type / ED50 analog x 100%) [7]	ACE Mito., no heparin (ED50 wild type / ED50 analog x 100%) [7]	Molecule
100	50	> 95%	–	–	–	–	–	–	–	–	–	–	–	–	bFGF(25-155) (from UniProt P09038-2) (ligand)
100	100	–	0.01 µg/mL	630 pg/mL	100	100	160 pg/mL	1	1	< 1 ng/mL	10 ng/mL	100 ng/mL	–	–	recombinant human basic FGF (wild type) (from UniProt P09038-2) (ligand)
144	65	–	–	–	–	–	–	0.45	0.5	–	–	–	72 % of wild type	2 % of wild type	bFGF-C34/78/101S (ligand) MAAGSITTLPALPEDGGSGAFPPGHFKDPKRLYSKNGGFFLRIHPDGRVDGVREKSDPHIKLQLQAEERGVVSIKGVSANRYLAMKEDGRLLASKCVTDESFFFERLESNNYNTYRSRKYTSWYVALKRTGQYKLGSKTGPGQKAILFLPMSAKS
